Data reported in patent US20180008672A1, “ANTI-ACTIVIN A ANTIBODIES AND METHODS OF USE THEREOF FOR TREATING PULMONARY ARTERIAL HYPERTENSION” (Regeneron Pharmaceuticals, Inc., priority 2016, published 2018).

System: rat model of pulmonary hypertension induced by monocrotaline
Test: rat model of pulmonary hypertension induced by monocrotaline
Format: in vivo, rat (Sprague Dawley)
Procedure: To further evaluate the effect of anti-Activin A antibodies in pulmonary arterial hypertension, a rat model of pulmonary hypertension induced by monocrotaline was used.
Six to seven week old Sprague Dawley rats were used. Rats were separated into treatment groups such that body weights were similar among different groups. Rats were subcutaneously administered either 40 mg/kg of monocrotaline or 5 mL/kg of saline at day 0. At 14 days post injection, saline-injected rats were orally dosed with PEG 400 (at 50:50 v/v, Affymetrix Inc., #19957) at 5 mL/kg daily for two weeks, and monocrotaline-injected rats were separated into 5 groups with a group (n=9) orally dosed with PEG 400 at 5 mL/kg daily for two weeks, another group (n=12) orally administered macintentan at 30 mg/kg daily for two weeks, and three groups that were both orally dosed with PEG 400 at 5 mL/kg daily for two weeks and subcutaneously treated with either anti-Activin A antibodies, H4H10430P (n=9), H4H10446P2 (n=11), or an isotype control antibody (n=10) at 40 mg/kg twice a week for two weeks.
At day 27, pulmonary artery size and right ventricular function and dimensions of the rats were assessed using a high frequency ultrasound system (Vevo 2100, VisualSonics). For the assessment, rats were anesthetized (with 1.5% isoflurane at a rate of 1.0 cc/mL of medical grade air) and their temperature was monitored with a rectal temperature probe and held at approximately 37° C. with a heated platform (Vevo 2100, Visualsonics) and a warming lamp. Both brightness-mode (B-mode) and motion-mode (M-mode) imaging were used. B-mode imaging of the rat heart in cross-section was used to determine pulmonary artery cross-sectional area (PA CSA) at the level of the pulmonary valve. […] was used to determine the pulsed wave velocity time integral (VTI), which is derived from the area under the curve of representative Doppler tracings of blood flow through the pulmonary artery. Right ventricular stroke volume (RV SV) was calculated from the product of PA CSA and VTI. Right ventricular cardiac output (RV CO) was calculated from the product of SV and heart rate (HR). M-mode imaging was used to determine right ventricular free wall (RVFW) thickness during diastole and systole. […]
Right ventricular pressure was subsequently assessed for all treatment groups. […] The catheter was connected to pressure/volume instrument (MPVS-300, Millar Instruments, Inc.) that measured heart rate as well as both diastolic and systolic right ventricular pressures. […] Readings were quantified from a 60 second interval of the pressure tracing (following a 2 minute period of recording to allow for pressure stabilization). The parameters analyzed were RV diastolic and systolic pressures, heart rate and ventricular contractile function. […]

[1] = monocrotaline 40 mg/kg SC day 0, antibodies 40 mg/kg SC 2x/wk, macitentan 30 mg/kg PO daily from day 14 for two weeks, ultrasound day 27

B1: H4H10430P: fully human anti-Activin A antibody, human IgG4 Fc; HCVR/LCVR SEQ ID NOs 66/74 (antibody, V domains shown)
VH: EVQLVESGGGLVQPGRSLRLSCKASGFAFDDFAMHWVRQAPGKGLEWVSGIVWNSGDIGYADSVKGRFTISRDNAKNSLYLQLNSLRTEDTALYFCVKDMVRGLMGFNYYGMDVWGQGTTVTVSS
VL: EIVLTQSPATLSLSPGERATLSCRASQTISTYLVWYRQRPGQAPSLLIYDASNRATDIPARFSGSGSGTDFTLTISSLEPEDFAVYYCQQRSNWPITFGQGTRLEIK
PA CSA (Ave ± SEM) [1]: 9.439 ± 0.516%% mm^2 | Right Ventricular cardiac output (Ave ± SEM) [1]: 130.0 ± 12.5 mL/min | Stroke Volume (Ave ± SEM), right ventricular [1]: 362.8 ± 32.6 µL | effect on PA CSA (in words) (monocrotaline-injected rats, FIG. 3A): restored PA CSA to values measured for saline-injected PEG 400 dosed rats
